# In publication PMC8748511 (2022):
# Biological target: SARS-CoV-2 spike receptor binding domain (RBD) (SARS-CoV-2, UniProt P0DTC2)
# Assay: SPR
binder,measurement,value
Fu2 (VHH) VHH: QVQLVESGGGLVQPGGSLRLSCAASGFTLDDYAIGWFRQAPGKEREGVSFITSSDGSTYYVDSVKGRFTISRDNAKNTVYLQMNSLTPEDTAIYYCAVGPSFSYTGSTYYRSELPWDYDYWGQGTQVTVSS,Kd,0.118 nM
